Test results from patent publication US20080113421A1, “Stabilizing proteins against denaturation and inactivation by charged detergents using chemical modifications, including modifications that increase net charge” (President and Fellows of Harvard College, priority 2006, published 2008).

What was measured:
[1] = Denaturation of BCA charge ladders in 3 mM SDS (dialysis cassette) followed by capillary electrophoresis, with transition-state model fit; format: physicochemical
Method: Denaturation experiments were performed as follows. A charge ladder of BCA (BCA-Acn or BCA-Hexn, 1 mL of 100 micromolar total protein in Tris-Gly buffer) was placed in a dialysis cassette (MW cutoff of 10 kDa). The dialysis cassette was placed in a 1 L bath of 3 mM SDS in Tris-Gly buffer at room temperature. The buffer was changed every 24 h. At regular intervals of time (approximately every half-hour), 100 microliters of the protein solution was removed from the dialysis cassette; ˜7 microliters of that aliquot was diluted 10-fold and the absorbance of the diluted sample at 280 nm (ε280,BcA=57,000 M^−1 cm^−1, the absorption cross section can be assumed to be is unchanged by acylation) was measured to determine the total protein concentration. The aliquot was diluted because the absorbance of the 100 micromolar solution was too high to be read accurately by the ultraviolet spectrometer. This diluted aliquot was discarded. The remainder of the solution was then run on CE. The protein solution, except for the portion diluted for ultraviolet measurement, was returned to the dialysis cassette; the aliquot was outside of the dialysis cassette for ˜5 min.
Capillary electrophoresis experiments were carried out in a Beckman (Fullerton, Calif.) PACE-MDQ system, using a capillary of inner diameter of 50 micrometers of total length of 110.2 cm, 100 cm to the detector. Tris-Gly in D2O was used as the running buffer, and the applied voltage was 30 kV. D2O was used in place of H2O for the electrophoresis buffer because the viscosity of D2O is higher than that of H2O and the higher viscosity minimizes diffusion. Samples were injected using pressure (20 psi) for 30 s. Each sample contained 0.65 mM dimethylformamide as an electrically neutral marker for electroosmotic flow.
The CMC of SDS in the Tris-Gly buffer used in this example was 4.3 mM. 3 mM SDS was chosen for these experiments because this concentration of SDS denatured BCA in an interval of time that was convenient for experimental work using CE. In addition, this concentration of SDS was close to the concentration often used in SDS-PAGE (0.1% or 3.5 mM). 1 mL of a solution of ˜100 micromolar of a charge ladder of BCA, dissolved in Tris-Gly buffer, was placed into a dialysis cassette (molecular weight cutoff of 10 kDa) and the cassette placed in 1 L of Tris-Gly buffer containing 3 mM SDS. The bath was kept at room temperature (˜22° C.) for the duration of the experiment.
At regular intervals of time (approximately every half hour), 100-microliter aliquots of the solutions containing the charge ladder of BCA were removed from the cassette in a bath of 3 mM SDS in Tris-Gly buffer, the total protein concentration in the aliquot was measured using absorbance at 280 nm, and a portion (˜10 nL) of the aliquot injected onto the CE. The unused portions of the aliquots were then returned to the cassette.
Residence time in the detection volume was determined as follows. […] If two proteins with the same absorptivity were present in a sample in equal concentrations, the protein of lower velocity would have a larger measured peak area than the protein of higher velocity. To correct for this experimental bias, the area of each peak was multiplied-by the velocity of the protein (Acorr=Ameasured×LD/tD), where LD is the length of the capillary from the end (where injection occurs) to the detector (100 cm in all of these experiments) and tD is the time it takes for the rung to reach the detector.
Initial differences in concentrations of each rung were as follows. The areas of each of the rungs in the charge ladder were not all equal before denaturation. To measure the fraction of each rung that has denatured at each time, the velocity-corrected area of each rung in the sample was divided by the velocity-corrected area of that rung in the charge ladder run in the absence of SDS.
A comparison of the rates of denaturation follows. […]

[2] = Screening of additives in denaturation/renaturation with SDS; format: physicochemical
Method: Additives in de-/renaturation included the following. The effects of the following additives on denaturation and renaturation of BCA and BCA-Ac18 were screened: poly(ethelyneglycol) (PEG, MW=2000), 0.1 mM, 1 mM; poly(vinylpyrrolidone), MW=10 000, 1%, 10% w/v; 3-(3-cholamidopropyl)dimethylammoniopropane sulfonate (CHAPS), 1 mM; octanol, 1 mM; tetrabutylammonium thiocyanate, 100 mM; sodium thiocyanate, 100 mM, 1 M; sodium sulfate, 10 mM; betaine, 1 M; dimethyl sulfoxide (DMSO), 1%, 10% v/v; N-methylpyrrolidone, 1%, 10% v/v. The screening was performed in a 96-well plate format, using a SpectraMax Gemini XS spectrometer (Molecular Devices), with a protein concentration of 100 nM, a DNSA concentration of 10 micromolar (present in the denaturation/renaturation buffers), and variable concentrations of SDS.
In some experiments, various additives were used to prevent aggregation of BCA and BCA-Ac18. These additives were commonly used to prevent aggregation of carbonic anhydrases and other proteins. The additives included polymers (PEG), other surfactants (CHAPS), “salting-in” Hofmeister salts (tetrabutylammonium thiocyanate and sodium thiocyanate), osmolytes (betaine), and organic solvents (dimethyl sulfoxide and N-methylpyrrolidone). […] For example, in 10% DMSO, it was observed that refolding of BCA up to 1.2 mM SDS (vs. 0.7 mM SDS without a cosolvent), but unfolding up to 2.5 mM SDS was not observed.

With bovine carbonic anhydrase II [BCA] the “ΔG‡ of denaturation (a coefficient)” value ([1]; 3 mM SDS, room temperature, assumes νκTST=10^6 s^−1) was 14 ± 1 kcal/mol, the “radius of the transition state RTS” value ([1]; model, assuming a radius of BCA of 2 nm) was 2.1 nm and the “highest SDS concentration at which refolding was observed” value ([2]; 1 mM CHAPS) was “up to 1.8 mM”. For the same substance, the “SDS concentration needed for unfolding” value ([2]; 1 mM CHAPS, unfolding did not occur below this concentration) was at least 2.5 mM, the “highest SDS concentration at which refolding was observed” value ([2]; 10% DMSO) was “up to 1.2 mM” and the “SDS concentration needed for unfolding” value ([2]; 10% DMSO, unfolding up to this concentration not observed) was over 2.5 mM. For the same substance, the “highest SDS concentration at which refolding was observed” value ([2]; without a cosolvent) was at most 0.7 mM.
